Test results: US12655198B2

Molecular target: alcohol dehydrogenase (ADH)

B1: CryS96 (αB-crystallin peptide fused with ELP S96) (protein)
chain: GDRFSVNLDVKHFSPEELKVKGVPGSGVPGSGVPGSGVPGSGVPGSGVPGSGVPGSGVPGSGVPGSGVPGSGVPGSGVPGSGVPGSGVPGSGVPGSGVPGSGVPGSGVPGSGVPGSGVPGSGVPGSGVPGSGVPGSGVPGSGVPGSGVPGSGVPGSGVPGSGVPGSGVPGSGVPGSGVPGSGVPGSGVPGSGVPGSGVPGSGVPGSGVPGSGVPGSGVPGSGVPGSGVPGSGVPGSGVPGSGVPGSGVPGSGVPGSGVPGSGVPGSGVPGSGVPGSGVPGSGVPGSGVPGSGVPGSGVPGSGVPGSGVPGSGVPGSGVPGSGVPGSGVPGSGVPGSGVPGSGVPGSGVPGSGVPGSGVPGSGVPGSGVPGSGVPGSGVPGSGVPGSGVPGSGVPGSGVPGSGVPGSGVPGSGVPGSGVPGSGVPGSGVPGSGVPGSGVPGSGVPGSGVPGSGVPGSGVPGSGVPGSGVPGSGVPGSGVPGSGVPGSGVPGSGVPGSGVPGSGY
ADH aggregation (optical density at 360 nm, 48° C., 2 h) (% decrease in ADH aggregation): 61
